Laboratory results reported in publication doi:10.1101/2025.11.17.688798, “Engineering directional phosphoryl flow enables programmable signaling dynamics in bacteria” (bioRxiv, 2025).

B1: Spo0B (enzyme, B. subtilis, UniProt P06535 1-192, looked up)
chain: MKDVSKNQEENISDTALTNELIHLLGHSRHDWMNKLQLIKGNLSLQKYDRVFEMIEEMVIDAKHESKLSNLKTPHLAFDFLTFNWKTHYMTLEYEVLGEIKDLSAYDQKLAKLMRKLFHLFDQAVSRESENHLTVSLQTDHPDRQLILYLDFHGAFADPSAFDDIRQNGYEDVDIMRFEITSHECLIEIGLD
notes: Spo0B, sporulation phosphotransferase of B. subtilis; Two protomers of Spo0B stand in the complex; the Spo0B dimer of PDB 1IXM was the search probe; also called phosphotransferase Spo0B; transferase; source: E. coli BL21 (DE3) pLysS, purified (HisTrap IMAC, TEV cleavage, reverse IMAC, Superdex 75 SEC); not shown: His6, N-terminal, cleaved

How the values were obtained:
[1] = molecular target: the molecule itself; test: crystal structure; purified Spo0B and Spo0A-REC mixed at 1:1.1 equivalents with 10 mM MgCl2 in 20 mM Tris-HCl pH 8.0, 0.1 M NaCl; sitting-drop vapour diffusion at 293 K; two crystal forms, 2.1 and 3.5 Å
[2] = molecular target: B1; test: as above; settings: both partners purified

Row | stoichiometry N [2] | Binder | binding result [1]
1 |  | B1 | binds
2 | 1 RR per phosphotransferase chain (printed as 2:2) | Spo0A-REC (domain or fragment, B. subtilis, UniProt P06534 1-123, looked up, PDB 1QMP (Spo0A receiver domain) was the search probe; also called Spo0A receiver domain; A3; source: E. coli BL21 (DE3) pLysS, purified (HisTrap IMAC, TEV cleavage, reverse IMAC, Superdex 75 SEC); not shown: His6, N-terminal, cleaved) MEKIKVCVADDNRELVSLLSEYIEGQEDMEVIGVAYNGQECLSLFKEKDPDVLVLDIIMPHLDGLAVLERLRESDLKKQPNVIMLTAFGQEDVTKKAVDLGASYFILKPFDMENLVGHIRQVS | 
